Measurements: article PMC7729032, “Interaction interface in the C-terminal parts of centriole proteins Sas6 and Ana2” (Open Biology, 2020)

Molecular target: T1, MBP-Sas6 wild-type (Drosophila, UniProt Q9VAC8 1-472)
T1 construct: Sas6, Drosophila, wild type; MBP from destination vector pKM596 (Gateway); No cleavage of MBP is described; also called Sas6-wt; source: E. coli Rosetta(DE3); in lysate (pull-down); purified on amylose resin and SEC (SEC, HDX-MS)
T1 sequence (looked up): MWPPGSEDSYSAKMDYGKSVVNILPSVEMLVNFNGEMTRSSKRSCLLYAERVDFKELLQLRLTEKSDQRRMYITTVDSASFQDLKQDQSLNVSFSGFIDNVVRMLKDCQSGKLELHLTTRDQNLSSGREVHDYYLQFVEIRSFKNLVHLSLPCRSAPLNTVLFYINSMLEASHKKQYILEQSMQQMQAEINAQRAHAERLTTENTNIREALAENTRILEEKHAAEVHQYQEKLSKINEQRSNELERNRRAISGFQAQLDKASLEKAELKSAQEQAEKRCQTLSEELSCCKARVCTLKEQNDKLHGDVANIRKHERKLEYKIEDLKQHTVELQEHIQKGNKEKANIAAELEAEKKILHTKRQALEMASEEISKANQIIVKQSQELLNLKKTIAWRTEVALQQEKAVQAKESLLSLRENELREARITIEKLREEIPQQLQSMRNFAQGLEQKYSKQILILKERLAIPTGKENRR
Experiment: SEC; MBP-Ana2-4D mixed with MBP-Sas6, at least 1 h on ice, Superdex 200 10/300; 20 mM Tris–HCl pH 7.5, 150 mM NaCl, 1 mM DTT, 4°C
Settings: both partners purified

- binding result: binds
B1: MBP-Ana2-4D (natural protein, Drosophila, UniProt Q9XZ31 1-420, looked up)
chain: MFVPETEDMLPRLAPRPSAAVPMGHTNEIIGPTVPEVSILFGQPPQDPQMQPQQPNHAHQESSPRAAPTFASWKKQMLPRVNFSPILATELGPRTAPSSNSPCSSKEYQVMPRDRNYASDAQQTTNHMNCNAGGYNAEPKQQAYQSRRLSSSSNADVLTICAGTQTDPFNPSPPRKSLPQVVYSDIDVSNLANKSDLAALVSLVESVRHEQQQLRNLCEMILEQQQRAKPEAISKASSTTGTQCDILTTNQAGRRLSPIMQDYIAEEEEPLPPPQARVIPQFPSPRPHPPIAQSTGYRANTPQAKRIPQLAKPNTEKDMVMNELALKYLRQPVDELMKDMRLGASPKSPNPEPLRPIDNIGHAQDPNDIDNADYKYLKKYRLLPEEQLEPVCPQSPMAATAPSPHIQLDLENIRNQPKLL
notes: Ana2, Drosophila; STAN motif serines 318, 365, 370 and 373 substituted by aspartic acid; MBP from destination vector pKM596; As prey against Gorab bait the MBP tag follows from the general methods of the pull-down; also called Ana2-4D-FL; source: E. coli Rosetta(DE3); purified on amylose resin and SEC (SEC, HDX-MS); in lysate (pull-down prey)
